For two molecules, IL-1β (pg/ml) released into the medium by macrophages stimulated with LPS and ATP, ELISA and percent inhibition of matIL-1β release from LPS-treated ICE +/+ macrophages results are on record in US6100445.

Assay [1] concerns the target mouse precursor form of IL-1β (preIL-1β) (mouse) (UniProt P10749).
The target in assay [2] is T1, murine interleukin-1β converting enzyme (ICE) (mouse).
T1 sequence: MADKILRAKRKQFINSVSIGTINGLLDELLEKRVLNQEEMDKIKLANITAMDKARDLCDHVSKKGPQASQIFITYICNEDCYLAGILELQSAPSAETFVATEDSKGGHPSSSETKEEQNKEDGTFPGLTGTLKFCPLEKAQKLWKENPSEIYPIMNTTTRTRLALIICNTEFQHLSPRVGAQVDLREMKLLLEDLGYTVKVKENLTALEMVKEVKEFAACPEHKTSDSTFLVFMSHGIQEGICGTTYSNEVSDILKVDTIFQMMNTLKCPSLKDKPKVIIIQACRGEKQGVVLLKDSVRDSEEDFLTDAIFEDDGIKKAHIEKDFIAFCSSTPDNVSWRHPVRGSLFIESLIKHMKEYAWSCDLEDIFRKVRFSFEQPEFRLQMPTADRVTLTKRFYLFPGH

Regarding “murine interleukin-1β converting enzyme (ICE)”, the IL-1β (pg/ml) released into the medium by macrophages stimulated with LPS and ATP, ELISA in assay [1] was determined as 4430 pg/mL.
Molecule Ac-YVAD-aldehyde [tetrapeptide aldehyde Ac-YVAD-CHO] returned a percent inhibition of matIL-1β release from LPS-treated ICE +/+ macrophages in assay [2] of 78%.
